Results taken from EP1514558A1 (Max-Planck-Gesellschaft zur Förderung der Wissenschaften …, dated 2005).

Target: HA-tagged MARK2, baculovirus-expressed in Sf9 cells (Rattus norvegicus (Rat), UniProt O08679 1-722)
Experiment: cell-based or functional assay

HA-tagged MARK2, baculovirus-expressed in Sf9 cells, sequence (O08679 other isoform, or with tags, fused parts or gaps limits assumed, form in doubt): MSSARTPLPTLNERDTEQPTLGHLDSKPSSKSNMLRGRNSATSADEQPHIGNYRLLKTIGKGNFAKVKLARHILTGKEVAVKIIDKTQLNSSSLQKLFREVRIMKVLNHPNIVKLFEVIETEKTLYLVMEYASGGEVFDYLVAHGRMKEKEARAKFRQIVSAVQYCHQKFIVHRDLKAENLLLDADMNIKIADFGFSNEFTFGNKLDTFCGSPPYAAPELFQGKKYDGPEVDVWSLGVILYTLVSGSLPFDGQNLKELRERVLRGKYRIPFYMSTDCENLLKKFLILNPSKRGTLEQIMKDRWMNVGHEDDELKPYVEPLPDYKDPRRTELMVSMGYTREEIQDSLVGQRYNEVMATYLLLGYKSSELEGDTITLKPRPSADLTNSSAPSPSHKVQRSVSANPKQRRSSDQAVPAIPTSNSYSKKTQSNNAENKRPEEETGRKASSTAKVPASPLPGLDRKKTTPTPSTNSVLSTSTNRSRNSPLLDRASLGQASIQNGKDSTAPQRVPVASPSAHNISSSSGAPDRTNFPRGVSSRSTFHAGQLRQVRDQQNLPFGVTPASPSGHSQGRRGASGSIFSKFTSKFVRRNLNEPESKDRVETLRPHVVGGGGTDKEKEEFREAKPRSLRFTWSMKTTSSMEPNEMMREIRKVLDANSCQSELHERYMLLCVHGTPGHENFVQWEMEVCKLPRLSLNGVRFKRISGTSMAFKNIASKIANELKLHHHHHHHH

B1: myc-tagged MARKK, baculovirus-expressed in Sf9 cells (enzyme, not shown: small tags and cut ends)
chain: MGHHHHHHHHHHSSGHIEGRHMPSTNRAGSLKDPEIAELFFKEDPEKLFTDLREIGHGSFGAVYFARDVRTNEVVAIKKMSYSGKQSTEKWQDIIKEVKFLQRIKHPNSIEYKGCYLREHTAWLVMEYCLGSASDLLEVHKKPLQEVEIAAITHGALQGLAYLHSHTMIHRDIKAGNILLTEPGQVKLADFGSASMASPANSFVGTPYWMAPEVILAMDEGQYDGKVDVWSLGITCIELAERKPPLFNMNAMSALYHIAQNESPTLQSNEWSDYFRNFVDSCLQKIPQDRPTSEELLKHMFVLRERPETVLIDLIQRTKDAVRELDNLQYRKMKKLLFQEAHNGPAVEAQEEEEEQDHGGGRTGTVNSVGSNQSIPSMSISASSQSSSVNSLPDASDDKSELDMMEGDHTVMSNSSVIHLKPEEENYQEEGDPRTRASDPQSPPQVSRHKSHYRNREHFATIRTASLVTRQMQEHEQDSELREQMSGYKRMRRQHQKQLMTLENKLKAEMDEHRLRLDKDLETQRNNFAAEMEKLIKKHQASMEKEAKVMANEEKKFQQHIQAQQKKELNSFLESQKREYKLRKEQLKEELNENQSTPKKEKQEWLSKQKENIQHFQAEEEANLLRRQRQYLELECRRFKRRMLLGRHNLEQDLVREELNKRQTQKDLEHAMLLRQHESMQELEFRHLNTIQKMRCELIRLQHQTELTNQLEYNKRRERELRRKHVMEVRQQPKSLKSKELQIKKQFQDTCKIQTRQYKALRNHLLETTPKSEHKAVLKRLKEEQTRKLAILAEQYDHSINEMLSTQALRLDEAQEAECQVLKMQLQQELELLNAYQSKIKMQAEAQHDRELRELEQRVSLRRALLEQKIEEEMLALQNERTERIRSLLERQAREIEAFDSESMRLGFSNMVLSNLSPEAFSHSYPGASSWSHNPTGGSGPHWGHPMGGTPQAWGHPMQGGPQPWGHPSGPMQGVPRGSSIGVRNSPQALRRTASGGRTEQGMSRSTSVTSQISNGSHMSYT
  activity of immunoprecipitated MARK2 (phosphorylation of TR1) on co-expression in Sf9 cells: ~3 fold
